Source: PMC7394266

What was measured:
[1] = target: PD-L1 IgV-TIM-3 chimera with K124S in the PD-L1 IgV domain, on transfected COS cells (human) (UniProt Q9NZQ7); test: flow cytometry on cells
[2] = target: PD-L1 IgV-TIM-3 chimera with M115A in the PD-L1 IgV domain, on transfected COS cells (human) (UniProt Q9NZQ7); test: flow cytometry on cells

“human B7–1-hIgG1 recombinant fusion protein (from UniProt P33681 35-242) (Fc fusion)” gave a percent decrease in binding against the unmutated chimera [1] of 80% and a percent decrease in binding against the unmutated chimera [2] of 80%.
